Literature values in publication PMC10746204.

Biological target: IFNAR2 (Homo sapiens) (UniProt P48551)
UniProt P48551, sequence (P48551 27-243): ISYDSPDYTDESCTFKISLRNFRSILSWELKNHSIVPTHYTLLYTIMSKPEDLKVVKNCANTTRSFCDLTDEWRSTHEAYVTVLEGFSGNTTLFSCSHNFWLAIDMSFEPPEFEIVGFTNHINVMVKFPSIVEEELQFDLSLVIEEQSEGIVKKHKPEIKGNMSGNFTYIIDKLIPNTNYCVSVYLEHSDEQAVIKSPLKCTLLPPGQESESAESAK

Kd: 700 pM
Substance: IFNα14 (from UniProt P01570)
